The experiment addresses Na+,HCO3- co-transporter NBCn1 (SLC4A7), native in MDCK-II cells (canine (endogenous in MDCK-II)). Description: proximity ligation; in situ PLA (Duolink II) with primary antibodies against NBCn1 and RACK1 in fixed non-confluent (60-70% confluency) MDCK-II or MCF-7 cells; control with only NBCn1 antibody.

The source of these data is PMC5943355.

As for “RACK1, native in MDCK-II cells (natural protein)”, the PLA signal, fold above the control with only NBCn1 antibody stood at 8 fold.
